Results as given in patent publication US20190382481A1 (Janssen / Centocor, published 2019).
Positions count from the first letter of the chain named.

Legend:
Assay in all cases: cell-based or functional assay
[1] = biological target: T1, human CD33 (human, UniProt P20138 18-364)
[2] = biological target: T1, human CD33; remark: listed apart in the source
[3] = biological target: cyno CD33 (cynomolgus monkey)
[4] = biological target: T1, human CD33; remark: listed apart in the source
[5] = biological target: T1, human CD33; remark: listed apart in the source
[6] = biological target: T1, human CD33; remark: listed apart in the source
[7] = biological target: T1, human CD33; remark: listed apart in the source

T1 sequence (P20138 18-364 limits assumed): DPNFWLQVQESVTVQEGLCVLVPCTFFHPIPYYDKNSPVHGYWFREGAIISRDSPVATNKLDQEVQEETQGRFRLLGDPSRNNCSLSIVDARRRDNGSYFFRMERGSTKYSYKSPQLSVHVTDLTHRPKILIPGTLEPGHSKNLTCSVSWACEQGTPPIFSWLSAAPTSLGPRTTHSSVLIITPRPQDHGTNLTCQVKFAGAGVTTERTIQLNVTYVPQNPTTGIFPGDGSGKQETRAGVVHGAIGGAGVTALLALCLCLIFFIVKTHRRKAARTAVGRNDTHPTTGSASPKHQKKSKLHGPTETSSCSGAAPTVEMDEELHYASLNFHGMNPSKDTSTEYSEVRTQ
cyno CD33 (cynomolgus monkey), sequence (chain, as listed by the source limits assumed): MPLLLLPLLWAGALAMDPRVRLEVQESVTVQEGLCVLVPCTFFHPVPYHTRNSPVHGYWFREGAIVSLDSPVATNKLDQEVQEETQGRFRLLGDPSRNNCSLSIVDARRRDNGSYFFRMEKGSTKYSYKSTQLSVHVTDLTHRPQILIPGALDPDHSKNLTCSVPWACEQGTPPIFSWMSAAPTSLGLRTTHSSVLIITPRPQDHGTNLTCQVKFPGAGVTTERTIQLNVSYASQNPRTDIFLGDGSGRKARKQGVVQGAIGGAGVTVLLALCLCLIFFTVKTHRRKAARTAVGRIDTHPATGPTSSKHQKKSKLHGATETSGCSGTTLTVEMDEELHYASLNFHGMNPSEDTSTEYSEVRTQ

B1: C3CB189 (bispecific antibody, human IgG4 S228P, kappa, lambda, F234A L235A)
heavy 1: not shown
light 1: not shown
heavy 2: QVQLQQSGPRLVRPSQTLSLTCAISGDSVFNNNAAWSWIRQSPSRGLEWLGRTYYRSKWLYDYAVSVKSRITVNPDTSRNQFTLQLNSVTPEDTALYYCARGYSSSFDYWGQGTLVTVSSASTKGPSVFPLAPCSRSTSESTAALGCLVKDYFPEPVTVSWNSGALTSGVHTFPAVLQSSGLYSLSSVVTVPSSSLGTKTYTCNVDHKPSNTKVDKRVESKYGPPCPPCPAPEAAGGPSVFLFPPKPKDTLMISRTPEVTCVVVDVSQEDPEVQFNWYVDGVEVHNAKTKPREEQFNSTYRVVSVLTVLHQDWLNGKEYKCKVSNKGLPSSIEKTISKAKGQPREPQVYTLPPSQEEMTKNQVSLTCLVKGFYPSDIAVEWESNGQPENNYKTTPPVLDSDGSFLLYSKLTVDKSRWQEGNVFSCSVMHEALHNHYTQKSLSLSLGK
light 2: QSALTQPASVSGSPGQSITISCTGTSSNIGTYKFVSWYQQHPDKAPKVLLYEVSKRPSGVSSRFSGSKSGNTASLTISGLQAEDQADYHCVSYAGSGTLLFGGGTKLTVLGQPKAAPSVTLFPPSSEELQANKATLVCLISDFYPGAVTVAWKADSSPVKAGVETTTPSKQSNNKYAASSYLSLTPEQWKSHRSYSCQVTHEGSTVEKTVAPTECS
Primary AML Cell Killing EC50 (nM), ex vivo AML patient whole blood [1]: 0.578 nM
CD33^+ CD14^+ Killing EC50 (nM), ex vivo human whole blood [2]: 1.16 nM
MOLM13 Killing EC50 (nM), ex vivo human whole blood [2]: 0.168 nM
CD33^+ CD14^+ Killing EC50 (nM), ex vivo cynomolgus whole blood [3]: 3.6 nM
T cell activation EC50 (nM), ex vivo cynomolgus whole blood [3]: 0.02 nM
IFN-gamma release, Median EC50 [4]: 0.16 nM
IL-1beta release, Median EC50 [4]: 0.045 nM
IL-2 release, Median EC50 [4]: 0.346 nM
IL-4 release, Median EC50 [4]: 0.078 nM
IL-8 release, Median EC50 [4]: 0.042 nM
IL-10 release, Median EC50 [4]: 0.123 nM
IL-13 release, Median EC50 [4]: 0.034 nM
TNF-alpha release, Median EC50 [4]: 0.208 nM

B2: C3CB103 (bispecific antibody, human IgG4 S228P, lambda, F234A L235A)
heavy 1: not shown
light 1: SYELTQPPSVSVSPGQTASITCSGDKLGDKYACWYQQKPGQSPVLVIYQDGKRPSGIPERFSGSNFGNKATLTISGTQAMDEADYYCQAWDRNTVVFGGGTKLTVLGQPKAAPSVTLFPPSSEELQANKATLVCLISDFYPGAVTVAWKADSSPVKAGVETTTPSKQSNNKYAASSYLSLTPEQWKSHRSYSCQVTHEGSTVEKTVAPTECS
heavy 2: B1 heavy 2
light 2: B1 light 2
Primary AML Cell Killing EC50 (nM), ex vivo AML patient whole blood [1]: 4.19 nM

B3: C3CB102 (bispecific antibody, human IgG4 S228P, lambda, F234A L235A)
heavy 1: not shown
light 1: B2 light 1 with D25N, D29A, Y31F, C33S, G51N, F66S, K69T, M80V, R92S, N93S
heavy 2: B1 heavy 2
light 2: B1 light 2
Primary AML Cell Killing EC50 (nM), ex vivo AML patient whole blood [1]: 4.97 nM

B4: C3CB12 (bispecific antibody, human IgG4 S228P, lambda, F234A L235A)
heavy 1: not shown
light 1: B2 light 1 with D25N, D29A, Y31F, C33S, G51N, F66S, K69T, M80V, R92S, N93S
heavy 2: EVQLVESGGGLVQPGGSLRLSCAASGFTFNTYAMNWVRQAPGKGLEWVARIRSKYNNYATYYAASVKGRFTISRDDSKNSLYLQMNSLKTEDTAVYYCARHGNFGNSYVSWFAYWGQGTLVTVSSASTKGPSVFPLAPCSRSTSESTAALGCLVKDYFPEPVTVSWNSGALTSGVHTFPAVLQSSGLYSLSSVVTVPSSSLGTKTYTCNVDHKPSNTKVDKRVESKYGPPCPPCPAPEAAGGPSVFLFPPKPKDTLMISRTPEVTCVVVDVSQEDPEVQFNWYVDGVEVHNAKTKPREEQFNSTYRVVSVLTVLHQDWLNGKEYKCKVSNKGLPSSIEKTISKAKGQPREPQVYTLPPSQEEMTKNQVSLTCLVKGFYPSDIAVEWESNGQPENNYKTTPPVLDSDGSFLLYSKLTVDKSRWQEGNVFSCSVMHEALHNHYTQKSLSLSLGK
light 2: QTVVTQEPSLTVSPGGTVTLTCRSSTGAVTTSNYANWVQQKPGQAPRGLIGGTNKRAPGTPARFSGSLLGGKAALTLSGVQPEDEAEYYCALWYSNLWVFGGGTKLTVLGQPKAAPSVTLFPPSSEELQANKATLVCLISDFYPGAVTVAWKADSSPVKAGVETTTPSKQSNNKYAASSYLSLTPEQWKSHRSYSCQVTHEGSTVEKTVAPTECS
Cytotoxicity EC50 (nM), T-cell mediated cytotoxicity of MOLM-13 [5]: 0.268 nM
Primary AML Cell Killing EC50 (nM), ex vivo AML patient whole blood [1]: 2.63 nM

B5: C3CB88 (bispecific antibody, human IgG4 S228P, kappa, lambda, F234A L235A)
heavy 1: not shown
light 1: not shown
heavy 2: B4 heavy 2
light 2: B4 light 2
Cytotoxicity EC50 (nM), T-cell mediated cytotoxicity of MOLM-13 [5]: 0.11 nM
Primary AML Cell Killing EC50 (nM), ex vivo AML patient whole blood [1]: 0.672 nM
CD33^+ CD14^+ Killing EC50 (nM), ex vivo human whole blood [2]: 0.506 nM
MOLM13 Killing EC50 (nM), ex vivo human whole blood [2]: 0.671 nM
CD33^+ CD14^+ Killing EC50 (nM), ex vivo cynomolgus whole blood [3]: 0.89 nM
T cell activation EC50 (nM), ex vivo cynomolgus whole blood [3]: 0.02 nM

B6: C33B782 (antibody, human IgG4 S228P, lambda, F234A L235A)
heavy: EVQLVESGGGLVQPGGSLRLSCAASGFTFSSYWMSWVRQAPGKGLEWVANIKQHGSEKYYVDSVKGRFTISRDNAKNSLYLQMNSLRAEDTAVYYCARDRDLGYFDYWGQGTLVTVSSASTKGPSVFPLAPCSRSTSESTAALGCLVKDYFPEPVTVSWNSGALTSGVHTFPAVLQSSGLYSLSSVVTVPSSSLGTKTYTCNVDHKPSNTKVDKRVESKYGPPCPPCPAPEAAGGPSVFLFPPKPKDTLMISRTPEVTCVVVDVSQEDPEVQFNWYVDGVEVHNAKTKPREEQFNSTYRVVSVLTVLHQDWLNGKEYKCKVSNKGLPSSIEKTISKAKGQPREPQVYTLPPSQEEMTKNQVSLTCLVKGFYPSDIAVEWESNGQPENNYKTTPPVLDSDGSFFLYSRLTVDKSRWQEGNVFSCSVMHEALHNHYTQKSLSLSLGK
light: B2 light 1 with D25N, D29A, Y31F, C33S, G51N, F66S, K69T, M80V, R92S, N93S
EC50 (nM), CD33 internalization assay (Protein A-MMAF cell viability, MOLM13) [6]: 0.88 nM

B7: C33B48.CLF (antibody, human IgG1, lambda)
heavy: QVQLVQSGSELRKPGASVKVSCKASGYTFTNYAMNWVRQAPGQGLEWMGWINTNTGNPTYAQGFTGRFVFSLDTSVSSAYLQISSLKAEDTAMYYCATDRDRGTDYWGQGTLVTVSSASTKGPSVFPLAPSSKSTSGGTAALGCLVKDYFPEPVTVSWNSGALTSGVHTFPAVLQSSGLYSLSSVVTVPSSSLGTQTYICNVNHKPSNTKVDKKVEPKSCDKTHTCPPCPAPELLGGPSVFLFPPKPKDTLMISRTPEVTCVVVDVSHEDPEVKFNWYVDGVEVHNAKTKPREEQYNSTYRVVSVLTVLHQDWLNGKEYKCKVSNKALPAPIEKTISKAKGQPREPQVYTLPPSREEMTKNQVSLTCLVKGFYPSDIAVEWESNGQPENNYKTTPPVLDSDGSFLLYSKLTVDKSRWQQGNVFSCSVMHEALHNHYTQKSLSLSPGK
light: QSALTQPASVSGSPGQSITISCTGTSSDVGDYNYVSWYQQHPGKVPKLMIYDVSNRPSGVSNRFSGSMSGNTASLTISGLQAEDEADYYCSSYSSSSALEVFGGGTKLTVLGQPKAAPSVTLFPPSSEELQANKATLVCLISDFYPGAVTVAWKADSSPVKAGVETTTPSKQSNNKYAASSYLSLTPEQWKSHRSYSCQVTHEGSTVEKTVAPTECS
modifications: IgG1 low fucose Fc glycan
EC50 ADCC (nM), MOLM-13 target cells, human NK effector cells [7]: 0.023 nM
EC50 ADCC (nM), MV4-11 target cells, human NK effector cells [7]: 0.113 nM

B8: C3CB97 (bispecific antibody, human IgG4 S228P, lambda, F234A L235A)
heavy 1: not shown
light 1: B7 light
heavy 2: B1 heavy 2
light 2: B1 light 2
Primary AML Cell Killing EC50 (nM), ex vivo AML patient whole blood [1]: ~0.232 nM

B9: C33B836 (antibody, human IgG4 S228P, lambda, F234A L235A)
heavy: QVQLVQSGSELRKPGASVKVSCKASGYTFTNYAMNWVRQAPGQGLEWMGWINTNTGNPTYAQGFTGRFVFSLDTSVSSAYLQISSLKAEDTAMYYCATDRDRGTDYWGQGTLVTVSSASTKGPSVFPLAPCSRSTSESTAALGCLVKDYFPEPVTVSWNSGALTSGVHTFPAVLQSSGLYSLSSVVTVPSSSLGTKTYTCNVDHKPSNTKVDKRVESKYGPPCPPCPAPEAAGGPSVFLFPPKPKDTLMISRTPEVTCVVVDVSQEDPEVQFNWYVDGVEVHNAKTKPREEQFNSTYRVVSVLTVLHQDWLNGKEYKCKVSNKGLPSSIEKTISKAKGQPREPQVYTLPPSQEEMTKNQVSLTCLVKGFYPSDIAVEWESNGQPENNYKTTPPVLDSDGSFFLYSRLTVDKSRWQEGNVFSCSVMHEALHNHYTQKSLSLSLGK
light: B7 light
EC50 (nM), CD33 internalization assay (Protein A-MMAF cell viability, MOLM13) [6]: 0.04 nM

B10: C3CB7 (bispecific antibody, human IgG4 S228P, lambda, F234A L235A)
heavy 1: not shown
light 1: B7 light
heavy 2: B4 heavy 2
light 2: B4 light 2
Cytotoxicity EC50 (nM), T-cell mediated cytotoxicity of MOLM-13 [5]: 0.0213 nM
Primary AML Cell Killing EC50 (nM), ex vivo AML patient whole blood [1]: 0.332 nM

B11: C33B912.CLF (antibody, human IgG1, kappa, V domains shown)
VH: EVQLVESGGGLVQPGRSLRLSCAASGFTFDDYAMHWVRQAPGKGLEWVSGIGWSGGSIVYADSVKGRFKISRDNAKNSLYLQMNSLRAEDTALYYCAKDSPYGDFFDYWGQGTLVTVSS
VL: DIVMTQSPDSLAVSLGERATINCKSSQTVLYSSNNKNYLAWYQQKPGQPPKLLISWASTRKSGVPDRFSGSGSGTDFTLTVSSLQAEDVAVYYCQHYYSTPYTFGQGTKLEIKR
modifications: IgG1 low fucose Fc glycan
EC50 ADCC (nM), MOLM-13 target cells, human NK effector cells [7]: 0.292 nM
EC50 ADCC (nM), MV4-11 target cells, human NK effector cells [7]: 2.01 nM
